Assay results: patent publication US7981423B2, “Rage fusion proteins” (Transtech Pharma, Inc., priority 2004, dated 2011)

Experiments:
S100b (S100) = molecular target: T1, S100b (S100) (Homo sapiens, UniProt P04271); assay: In vitro ligand binding ELISA, immobilized S100b; conditions: various dilutions of fusion protein; FIG. 7
T1 sequence (P04271 1-92): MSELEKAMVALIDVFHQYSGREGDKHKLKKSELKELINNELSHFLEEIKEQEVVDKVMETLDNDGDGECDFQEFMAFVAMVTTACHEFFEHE
Description: (§1) For example, the RAGE fusion protein may be used in a binding assay to identify potential RAGE ligands. In one example embodiment of such a binding assay, a known RAGE ligand may coated onto a solid substrate (e.g., Maxisorb plates) at a concentration of about 5 micrograms per well, where each well contains a total volume of about 100 microliters (μL). The plates may be incubated at 4° C. overnight to allow the ligand to absorb. Alternatively, shorter incubation periods at higher temperature (e.g., room temperature) may be used. […] The fusion protein bound to the immobilized ligand may be detected in a variety of ways. […] The bound complex may be detected by adding the alkaline phosphatase substrate, para-nitrophenylphosphate (PNPP), and measuring conversion of PNPP to para-nitrophenol (PNP) as an increase in absorbance at 405 nm. […] Binding was detected by the addition of an immunodetection complex containing a monoclonal mouse anti-human IgG1 diluted 1:11,000 to a final assay concentration (FAC) of 21 ng/100 μL, a biotinylated goat anti-mouse IgG diluted 1:500, to a FAC of […], and an avidin-linked alkaline phosphatase. […] Binding of the complex to the immobilized fusion protein was quantified by measuring conversion of PNPP to para-nitrophenol (PNP) which was-measured spectrophotornetrically at 405 nm. […]

amyloid-beta (Abeta) = molecular target: T2, amyloid-beta (Abeta) (Homo sapiens, UniProt P05067); assay: In vitro ligand binding ELISA, immobilized amyloid-beta; conditions: various dilutions of fusion protein; FIG. 7
T2 construct: Amyloid Beta (1-40) from Biosource; purchased Biosource
Description: as §1

Fc receptor = Fc receptor activation, TNF-α secretion from THP-1 cells; type: cell-based; conditions: FIG. 12
Text: Fc stimulation results in TNF-α secretion.

amphoterin (Ampho) = molecular target: T3, amphoterin (Ampho) (Homo sapiens, UniProt P09429); assay: In vitro ligand binding ELISA, immobilized amphoterin; conditions: various dilutions of fusion protein; FIG. 7
T3 sequence (P09429 1-215): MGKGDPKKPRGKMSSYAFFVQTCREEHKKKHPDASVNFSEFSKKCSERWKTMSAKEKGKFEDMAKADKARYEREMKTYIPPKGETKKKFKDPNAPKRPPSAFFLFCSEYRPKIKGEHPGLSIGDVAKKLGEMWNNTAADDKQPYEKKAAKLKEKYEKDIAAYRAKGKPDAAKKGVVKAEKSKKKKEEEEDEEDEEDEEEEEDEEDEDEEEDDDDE
Description: as §1

[1] = system: RAGE (S100b-stimulated THP-1 cells); assay: S100b/RAGE-induced production of TNF-α in THP-1 cells; type: cell-based; conditions: 10 μg protein, FIG. 10
Description: THP-1 myeloid cells may be cultured in RPMI-1640 media supplemented with 10% FBS and induced to secrete TNF-α via stimulation of RAGE with S100b. When such stimulation occurs in the presence of a RAGE fusion protein, induction of TNF-α, by S100b binding to RAGE may be inhibited.
Previous work has shown that the myeloid THP-1 cells may secrete TNF-α in response to RAGE ligands. In this assay, THP-1 cells were cultured in RPMI-1640 media supplemented with 10% FBS using a protocol provided by ATCC. […] The amount of TNF-α secreted by the THP-1 cells was measured 24 hours after the addition of the proteins to the cell culture using a commercially available ELISA kit for TNF-α (R&D Systems, Minneapolis, Minn.).

T2 sequence (P05067 672-711 limits assumed): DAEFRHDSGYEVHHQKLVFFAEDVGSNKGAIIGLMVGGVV

B1: TTP-4000: four domain RAGE fusion protein (SEQ ID NO: 32): human RAGE amino acids 1-251 linked to CH2 and CH3 domains of human IgG (protein)
chain: MAAGTAVGAWALVLSLWGAVVGAQNITARIGEPLVLKCKGAPKKPPQRLEWKLNTGRTEAWKVLSPQGGGPWDSVARVLPNGSLFLPAVGIQDEGIFRCQAMNRNGKETKSNYRVRVYQIPGKPEIVDSASELTAGVPNKVGTCVSEGSYPAGTLSWHLDGKPLVPNEKGVSVKEQTRRHPETGLFTLQSELMVTPARGGDPRPTFSCSFSPGLPRHRALRTAPIQPRVWEPVPLEEVQLVVEPEGGAVAPPSVFLFPPKPKDTLMISRTPEVTCVVVDVSHEDPEVKFNWYVDGVEVHNAKTKPREEQYNSTYRVVSVLTVLHQDWLNGKEYKCKVSNKALPAPIEKTISKAKGQPREPQVYTLPPSRDELTKNQVSLTCLVKGFYPSDIAVEWESNGQPENNYKTTPPVLDSDGSFFLYSKLTVDKSRWQQGNVFSCSVMHEALHNHYTQKSLSLSPGK
For B1, the “binding to immobilized S100b (absorbance at 405 nm)” value (S100b (S100)) was “specifically interact”, the “binding to immobilized amyloid-beta (absorbance at 405 nm)” value (amyloid-beta (Abeta)) was “specifically interact” and the “stimulation of TNF-α release from cells (in words)” value (Fc receptor; conditions where human IgG stimulation of TNF-α release is detected) was “does not stimulate TNF-α release”. For the same molecule, the TNF generated (Fc receptor; well precoated with 10 μg/well heat aggregated protein, THP-1 cells, 24 hours) was “less than 2 ng/well”, the “binding to immobilized amphoterin (absorbance at 405 nm)” value (amphoterin (Ampho)) was “specifically interact” and the “reduction of S100b induction of TNF-α” value ([1]; S100b 0.1 mg/ml FAC, 24 hours) was roughly 70%. The “effect on S100b induction of TNF-α (in words)” value ([1]; S100b 0.1 mg/ml) was “at least as effective in blocking S100b induction of TNF-α as is sRAGE”.
